Changes are numbered by the printed parent chain. Names may count otherwise.
B1: D248EE251D: mutated TriA variant of SEQ ID NO: 2 (protein)
chain: MQTLSIQHGTLVTMDQYRRVLGDSWVHVQDGRIVALGVHAESVPPPADRVIDARGKVVLPGFINAHTHVNQILLRGGPSHGRQLYDWLFNVLYPGQKAMRPEDVAVAVRLYCAEAVRSGITTINDNADSAIYPGNIEAAMAVYGEVGVRVVYARMFFDRMDGRIQGYVDALKARSPQVELCSIMEETAVAKDRITALSDQYHGTAGGRISVWPAPAITPAVTVEGMRWAQAFARDRAVMWTLHMAESEHDDRLHWMSPAEYMECYGLLDERLQVAHCVYFDRKDVRLLHRHNVKVASQVVSNAYLGSGVAPVPEMVERGMAVGIGTDDGNCNDSVNMIGDMKFMAHIHRAVHRDADVLTPEKILEMATIDGARSLGMDHEIGSIETGKRADLILLDLRHPQTTPHHHLAATIVFQAYGNEVDTVLIDGNVVMENRRLSFLPPERELAFLEEAQSRATAILQRANMVANPAWRSL
modifications: Pseudomonas
B2: S301V: mutated TriA variant of SEQ ID NO: 2 (protein)
chain: B1 chain with E248D, D251E, S301V
modifications: Pseudomonas
B3: Q298C: mutated TriA variant of SEQ ID NO: 2 (protein)
chain: B1 chain with E248D, D251E, Q298C
modifications: Pseudomonas
B4: S301T: mutated TriA variant of SEQ ID NO: 2 (protein)
chain: B1 chain with E248D, D251E, S301T
modifications: Pseudomonas
B5: S301A: mutated TriA variant of SEQ ID NO: 2 (protein)
chain: B1 chain with E248D, D251E, S301A
modifications: Pseudomonas
B6: Q298N: mutated TriA variant of SEQ ID NO: 2 (protein)
chain: B1 chain with E248D, D251E, Q298N
modifications: Pseudomonas
B7: Y304K: mutated TriA variant of SEQ ID NO: 2 (protein)
chain: B1 chain with E248D, D251E, Y304K
modifications: Pseudomonas
B8: Q71T: mutated TriA variant of SEQ ID NO: 2 (protein)
chain: B1 chain with Q71T, E248D, D251E
modifications: Pseudomonas
B9: Q298S: mutated TriA variant of SEQ ID NO: 2 (protein)
chain: B1 chain with E248D, D251E, Q298S
modifications: Pseudomonas
B10: Q298T: mutated TriA variant of SEQ ID NO: 2 (protein)
chain: B1 chain with E248D, D251E, Q298T
modifications: Pseudomonas
B11: N302E: mutated TriA variant of SEQ ID NO: 2 (protein)
chain: B1 chain with E248D, D251E, N302E
modifications: Pseudomonas
B12: ΔS129_A130: TriA deletion variant of SEQ ID NO: 2 (protein)
chain: MQTLSIQHGTLVTMDQYRRVLGDSWVHVQDGRIVALGVHAESVPPPADRVIDARGKVVLPGFINAHTHVNQILLRGGPSHGRQLYDWLFNVLYPGQKAMRPEDVAVAVRLYCAEAVRSGITTINDNADIYPGNIEAAMAVYGEVGVRVVYARMFFDRMDGRIQGYVDALKARSPQVELCSIMEETAVAKDRITALSDQYHGTAGGRISVWPAPAITPAVTVEGMRWAQAFARDRAVMWTLHMAESDHDERLHWMSPAEYMECYGLLDERLQVAHCVYFDRKDVRLLHRHNVKVASQVVSNAYLGSGVAPVPEMVERGMAVGIGTDDGNCNDSVNMIGDMKFMAHIHRAVHRDADVLTPEKILEMATIDGARSLGMDHEIGSIETGKRADLILLDLRHPQTTPHHHLAATIVFQAYGNEVDTVLIDGNVVMENRRLSFLPPERELAFLEEAQSRATAILQRANMVANPAWRSL
modifications: Pseudomonas
B13: ΔA130_I131: TriA deletion variant of SEQ ID NO: 2 (protein)
chain: B12 chain with I129S
modifications: Pseudomonas
B14: ΔR174_L180: TriA deletion variant of SEQ ID NO: 2 (protein)
chain: MQTLSIQHGTLVTMDQYRRVLGDSWVHVQDGRIVALGVHAESVPPPADRVIDARGKVVLPGFINAHTHVNQILLRGGPSHGRQLYDWLFNVLYPGQKAMRPEDVAVAVRLYCAEAVRSGITTINDNADSAIYPGNIEAAMAVYGEVGVRVVYARMFFDRMDGRIQGYVDALKACSIMEETAVAKDRITALSDQYHGTAGGRISVWPAPAITPAVTVEGMRWAQAFARDRAVMWTLHMAESDHDERLHWMSPAEYMECYGLLDERLQVAHCVYFDRKDVRLLHRHNVKVASQVVSNAYLGSGVAPVPEMVERGMAVGIGTDDGNCNDSVNMIGDMKFMAHIHRAVHRDADVLTPEKILEMATIDGARSLGMDHEIGSIETGKRADLILLDLRHPQTTPHHHLAATIVFQAYGNEVDTVLIDGNVVMENRRLSFLPPERELAFLEEAQSRATAILQRANMVANPAWRSL
modifications: Pseudomonas
B15: ΔA170_S182: TriA deletion variant of SEQ ID NO: 2 (protein)
chain: MQTLSIQHGTLVTMDQYRRVLGDSWVHVQDGRIVALGVHAESVPPPADRVIDARGKVVLPGFINAHTHVNQILLRGGPSHGRQLYDWLFNVLYPGQKAMRPEDVAVAVRLYCAEAVRSGITTINDNADSAIYPGNIEAAMAVYGEVGVRVVYARMFFDRMDGRIQGYVDIMEETAVAKDRITALSDQYHGTAGGRISVWPAPAITPAVTVEGMRWAQAFARDRAVMWTLHMAESDHDERLHWMSPAEYMECYGLLDERLQVAHCVYFDRKDVRLLHRHNVKVASQVVSNAYLGSGVAPVPEMVERGMAVGIGTDDGNCNDSVNMIGDMKFMAHIHRAVHRDADVLTPEKILEMATIDGARSLGMDHEIGSIETGKRADLILLDLRHPQTTPHHHLAATIVFQAYGNEVDTVLIDGNVVMENRRLSFLPPERELAFLEEAQSRATAILQRANMVANPAWRSL
modifications: Pseudomonas

Assay type: biochemical
Details: pH 7.2
Procedure: EXAMPLE 3: Protein Purification. TriA and variants thereof were produced in E. coli BL21(DE3) Gold (Agilent Technologies, Germany). Therefore E. coli was transformed with appropriate pET24d N-HIS tag expression vector and chaperone plasmid pGro7 (chaperones groEL and groES). Bacterial strains were grown at 30° C. in 100 mL LB for 20 h and protein expression induced with 0.1 mM IPTG at 25° C. for 20 hs. Cells were harvested by centrifugation at 3000 rpm at 4° C. for 20 min, resuspended in Bug Buster protein extraction reagent (Novagen, Germany) according to manufactures instructions. Lysates were clarified by centrifugation. Samples of bovine serum albumin ([…]) were loaded onto each gel analyzed by densitometry to provide an internal standard. Protein determinations were verified using Coomassie protein assay dye, according to manufactures instruction (Thermo Scientific; USA). The HIS-tagged enzymes were purified by metal ion affinity chromatography using Ni-IDA 1000 kit (Macherey-Nagel, Germany) following manufactures instructions. Protein purity was accessed by SDS-PAGE using NuPAGE Novex 4-12% Bis-Tris pre-cast gels (Life Technologies; USA) stained with Coomassie Brilliant Blue (Serva, Germany). Protein concentrations were estimated by measuring absorbance at 280 nm using Lambda Bio+(Perkin Elmer, USA). EXAMPLE 4: Enzyme kinetics. Resting cell suspension containing triA gene were incubated with various azines, melamine and atrazine and the culture filtrate was analyzed by UPLC-HR-MS. Substrates were obtained either from Sigma-Aldrich or synthesized internally. Synthetic standards and enzyme reaction products were analysed by UPLC-HR-MS (Thermo/Dionex UPLC UltiMate3000 coupled to a QExactive high resolution mass spectrometer). A Waters Acquity HSS T3 column (2.1 mm; 100 mm; […]) was used with a mobile phase water/acetonitrile (0.1% formic acid) with a flow rate of […]. Enzymes were used solved 25 mM sodium phosphate buffer (pH 7.2) with substrate concentration in the range of 1 nM to 10 nM at 30° C. Over time, the original azine peak disappeared whereas the formed OH-Metabolite (reaction product) increased. The product was identified by determination of the exact formula and by analysis of the accurate MS-MS fragments. Moreover for some of the formed products authentic standards were co-eluted. Degradation in % was calculated against the cells harboring the empty vector as control.
In the case of B1, the “Degradation in % of 6-cyclopentyl-N4-(2,3,4,5,6-pentafluorophenyl)-1,3,5-triazine-2,4-diamine” value is reported as 2% and the “Degradation in % of Melamine” value is reported as 1%. With B2 the “Degradation in % of 6-cyclopentyl-N4-(2,3,4,5,6-pentafluorophenyl)-1,3,5-triazine-2,4-diamine” value was 0% and the “Degradation in % of Melamine” value was 0%. With B3 the “Degradation in % of 6-cyclopentyl-N4-(2,3,4,5,6-pentafluorophenyl)-1,3,5-triazine-2,4-diamine” value was 23% and the “Degradation in % of Melamine” value was 100%. In the case of B4, the “Degradation in % of 6-cyclopentyl-N4-(2,3,4,5,6-pentafluorophenyl)-1,3,5-triazine-2,4-diamine” value is reported as 1% and the “Degradation in % of Melamine” value is reported as 0%. For B5, the “Degradation in % of 6-cyclopentyl-N4-(2,3,4,5,6-pentafluorophenyl)-1,3,5-triazine-2,4-diamine” value was 6% and the “Degradation in % of Melamine” value was 0%. For B6, the “Degradation in % of 6-cyclopentyl-N4-(2,3,4,5,6-pentafluorophenyl)-1,3,5-triazine-2,4-diamine” value was 0% and the “Degradation in % of Melamine” value was 5%. With B7 the “Degradation in % of 6-cyclopentyl-N4-(2,3,4,5,6-pentafluorophenyl)-1,3,5-triazine-2,4-diamine” value was 0% and the “Degradation in % of Melamine” value was 2%. For B8, the “Degradation in % of 6-cyclopentyl-N4-(2,3,4,5,6-pentafluorophenyl)-1,3,5-triazine-2,4-diamine” value was 0% and the “Degradation in % of Melamine” value was 0%. With B9 the “Degradation in % of 6-cyclopentyl-N4-(2,3,4,5,6-pentafluorophenyl)-1,3,5-triazine-2,4-diamine” value was 0% and the “Degradation in % of Melamine” value was 83%. With B10 the “Degradation in % of 6-cyclopentyl-N4-(2,3,4,5,6-pentafluorophenyl)-1,3,5-triazine-2,4-diamine” value was 0% and the “Degradation in % of Melamine” value was 63%. In the case of B11, the “Degradation in % of 6-cyclopentyl-N4-(2,3,4,5,6-pentafluorophenyl)-1,3,5-triazine-2,4-diamine” value is reported as 1% and the “Degradation in % of Melamine” value is reported as 8%. With B12 the “Degradation in % of 6-cyclopentyl-N4-(2,3,4,5,6-pentafluorophenyl)-1,3,5-triazine-2,4-diamine” value was 3% and the “Degradation in % of Melamine” value was 0%. For B13, the “Degradation in % of 6-cyclopentyl-N4-(2,3,4,5,6-pentafluorophenyl)-1,3,5-triazine-2,4-diamine” value was 0% and the “Degradation in % of Melamine” value was 3%. For B14, the “Degradation in % of 6-cyclopentyl-N4-(2,3,4,5,6-pentafluorophenyl)-1,3,5-triazine-2,4-diamine” value was 0% and the “Degradation in % of Melamine” value was 1%. In the case of B15, the “Degradation in % of 6-cyclopentyl-N4-(2,3,4,5,6-pentafluorophenyl)-1,3,5-triazine-2,4-diamine” value is reported as 2% and the “Degradation in % of Melamine” value is reported as 0%.
